Reference: patent US20030219858A1

Target: human heteromultimeric ASIC-2S.2 channel (human ASIC2A + human ASIC3) (human) (UniProt Q16515)
Assay: cell-based or functional assay

human heteromultimeric ASIC-2S.2 channel (human ASIC2A + human ASIC3) (human), sequence (Q16515 whole entry, chain 1 of 2): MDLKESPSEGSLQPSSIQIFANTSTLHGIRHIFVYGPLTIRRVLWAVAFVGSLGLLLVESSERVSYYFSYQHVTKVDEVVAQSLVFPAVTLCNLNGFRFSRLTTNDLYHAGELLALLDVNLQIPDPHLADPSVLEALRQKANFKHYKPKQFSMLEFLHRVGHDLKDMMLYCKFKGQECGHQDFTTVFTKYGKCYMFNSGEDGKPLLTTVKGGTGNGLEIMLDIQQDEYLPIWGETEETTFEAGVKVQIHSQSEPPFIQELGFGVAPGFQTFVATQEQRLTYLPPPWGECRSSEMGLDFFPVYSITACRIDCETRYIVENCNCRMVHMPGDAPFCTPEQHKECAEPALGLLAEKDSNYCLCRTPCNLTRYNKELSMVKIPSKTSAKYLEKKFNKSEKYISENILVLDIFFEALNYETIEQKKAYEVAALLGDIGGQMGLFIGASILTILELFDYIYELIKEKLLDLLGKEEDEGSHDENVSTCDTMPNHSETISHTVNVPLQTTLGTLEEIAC
human heteromultimeric ASIC-2S.2 channel (human ASIC2A + human ASIC3) (human), sequence (chain, as listed by the source, chain 2 of 2): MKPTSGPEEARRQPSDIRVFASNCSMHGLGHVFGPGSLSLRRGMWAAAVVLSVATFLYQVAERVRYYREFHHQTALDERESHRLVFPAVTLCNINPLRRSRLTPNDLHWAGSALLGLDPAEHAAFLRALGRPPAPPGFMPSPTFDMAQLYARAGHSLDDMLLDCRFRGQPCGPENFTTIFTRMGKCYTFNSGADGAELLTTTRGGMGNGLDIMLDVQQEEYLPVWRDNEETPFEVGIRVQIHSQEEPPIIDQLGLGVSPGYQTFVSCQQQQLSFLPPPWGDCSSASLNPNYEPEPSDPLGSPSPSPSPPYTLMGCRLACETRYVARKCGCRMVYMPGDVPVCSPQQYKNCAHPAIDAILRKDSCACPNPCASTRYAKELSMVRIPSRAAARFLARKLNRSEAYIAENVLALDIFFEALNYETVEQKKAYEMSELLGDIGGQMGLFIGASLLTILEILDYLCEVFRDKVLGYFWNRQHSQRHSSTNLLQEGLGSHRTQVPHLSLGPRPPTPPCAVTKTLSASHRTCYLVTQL

An EC50 of potentiation of currents induced by pH 4 of 2 µM was found for “NPFF (from UniProt O15130 69-76) (peptide)” in this work.
